Experimental data: patent publication US20050283857A1 (UNIVERSITY OF GEORGIA RESEARCH FOUNDATION, published 2005)

Biological target: Cry1Ab toxin (Bacillus thuringiensis)
Test: 125I-Cry1Ab toxin binding saturation assay on S2 cells; dissociation constant (Kcom)

B1: Cad7-12 truncated Bt-R1a cadherin expressed in S2 cells (receptor)
chain: GTLEQNFRVREMSAGGLVVGSVRADDIDGPLYNQVRYTIFPREDTDKDLIMIDFLTGQISVNTSGAIDADTPPRFHLYYTVVASDRCSTEDPADCPPDPTYWETEGNITIHITDTNNKVPQAETTKFDTVVYIYENATHLDEVVTLIASDLDRDEIYHTVSYVINYAVNPRLMNFFSVNRETGLVYVDYETQGSGEVLDRDGDEPTHRIFFNLIDNFMGEGEGNRNQNDTEVLVILLDVNDNAPELPPPSELSWTISENLKQGVRLEPHIFAPDRDEPDTDNSRVGYEILNLSTERDIEVPELFVMIQIANVTGELETAMDLKGYWGTYAIHIRAFDHGIPQMSMNETYELIIHPFNYYAPEFVFPTNDAVIRLARERAVINGVLATVNGEFLERISATDPDGLHAGVVTFQVVGDEESQRYFQVVNDGANLGSLRLLQAVPEEIREFRITIRATDQGTDPGPLSTDMTFRVVFVPTQGEPRFASSEHAVAFIEKSAGMEESHQLPLAQDIKNHLCEDDCHSIYYRIIDGNSEGHFGLDPVRNRLFLKKELIREQSASHTLQVAASNSPDGGIPLPASILTVTVTVREADPRPVFMRELYTAGISTADSIGRELLRLHATQSEGAAITYAIDYDTMVVDPSLEAVRQSAFVLNAQTGVLTLNIQPTATMHGLFKFEVTATDTAGAQDRTDVTVYVVSSQNRVYFVFVNTLQQVEDNRDFIADTFSAGFNMTCNIDQVVPANDPVTGVALEHSTQMRGHFIRDNVPVLADEIEQIRSDLVLLSSIQTTLAARSLVLQDLLTNSSPDSAPDSSLTVYVLASLSAVLGFMCLVLLLTFIIRTRALNRRLEALSMTKYGSLDSGLNRAGIAAPGTNKHTVEGSNPIFNEAIKTPDLDAISEGSNDSDLIGIEDLPHFGNVFMDPEVNEKANGYPEVANHNNNFAFNPTPFSPEFVNGQFRKI
Question: B1 was tested. Which Kd did it give?
Answer: 2.05 nM
